Source: paper PMC3035472

Target: sigma A (primary sigma factor), wild type, refolded from inclusion bodies (Bacillus subtilis, UniProt P06224 1-371)
Assay: EMSA

Sequence of sigma A (primary sigma factor), wild type, refolded from inclusion bodies (P06224 whole entry): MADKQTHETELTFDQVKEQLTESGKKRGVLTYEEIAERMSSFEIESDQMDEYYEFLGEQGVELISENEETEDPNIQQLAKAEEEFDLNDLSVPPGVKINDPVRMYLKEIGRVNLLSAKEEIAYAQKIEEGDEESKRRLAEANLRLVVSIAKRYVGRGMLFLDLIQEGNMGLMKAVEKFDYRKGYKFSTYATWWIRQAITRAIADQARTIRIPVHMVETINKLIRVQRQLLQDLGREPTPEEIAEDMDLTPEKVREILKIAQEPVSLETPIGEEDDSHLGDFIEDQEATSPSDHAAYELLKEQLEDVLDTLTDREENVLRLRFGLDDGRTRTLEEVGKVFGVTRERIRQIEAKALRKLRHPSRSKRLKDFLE

B1: tgbp3 cDNA fragment (non-promoter) (dsDNA)
DNA 1: AGACTACCATGGCTCTAAACACTGACACACTATGCATCATTCTGTTCATACTAATATTAGGCATCCTATATAATATACTTCAACAGCATCTGCCCCCACCATGTGAAATAATAATAAACGGGCACACTATATCCATTAGGGGCAACTGCTACCACACCACCTCCAGCCTCGAGCACCAC
DNA 2: GTGGTGCTCGAGGCTGGAGGTGGTGTGGTAGCAGTTGCCCCTAATGGATATAGTGTGCCCGTTTATTATTATTTCACATGGTGGGGGCAGATGCTGTTGAAGTATATTATATAGGATGCCTAATATTAGTATGAACAGAATGATGCATAGTGTGTCAGTGTTTAGAGCCATGGTAGTCT
B1: binds.
